Measured values published in article doi:10.1101/2020.09.28.310474 (bioRxiv, 2020).

Molecular target: the molecule itself
Assay: crystal structure

B1: human CaMKIIα hub domain containing six mutations (6x Hub) (domain or fragment, UniProt Q9UQM7 345-475, looked up)
chain: VRKQEIIKVNQQLIEAISNGDFESYTKMCDPGMTAFEPEALGNLVEGLDFHRFYFENLWSRNSKPVHNTMLNPHIHLMGDESACIAYIRITQYLDAGGIPRTAQSEETRVWHRRDGKWQHVHMHRSGAPSV
stoichiometry N: 14
